Assays:
Experiment in all cases: IEDB peptide-MHC binding, purified MHC/competitive/radioactivity; filed as Kd, often an IC50 or EC50 that approximates it; ≥ and ≤ were set here for values at or beyond the usual limits of such assays
HLA-A*11:01 = target: HLA-A*11:01
HLA-A*03:01 = target: HLA-A*03:01
HLA-A*33:01 = target: HLA-A*33:01
HLA-A*68:01 = target: HLA-A*68:01
HLA-A*31:01 = target: HLA-A*31:01
[1] = source organism: Vaccinia virus WR
[2] = source organism: Lassa virus GA391
[3] = source organism: SARS coronavirus Tor2
[4] = source organism: Mammarenavirus juninense
[5] = source organism: Lymphocytic choriomeningitis virus (strain Armstrong)

Row | Sequence | Kd (HLA-A*11:01; [1]) | Kd (HLA-A*03:01; [1]) | Kd (HLA-A*33:01; [1]) | Kd (HLA-A*68:01; [1]) | Kd (HLA-A*31:01; [1]) | Kd (HLA-A*11:01; [3]) | Kd (HLA-A*03:01; [3]) | Kd (HLA-A*33:01; [3]) | Kd (HLA-A*68:01; [3]) | Kd (HLA-A*31:01; [3]) | also measured
1 | SIKIKQDVR | 5370 nM | 10800 nM | 4450 nM | 316 nM | 313 nM |  |  |  |  |  | 
2 | SILDRIDTR | 499 nM | ≥ 78000 nM | 113 nM | 189 nM | 71 nM |  |  |  |  |  | 
3 | SLMSIISTFH |  |  |  |  |  |  |  |  |  |  | Kd (HLA-A*11:01; [2]): 2280 nM; Kd (HLA-A*03:01; [2]): 850 nM; Kd (HLA-A*33:01; [2]): ≥ 25000 nM; Kd (HLA-A*68:01; [2]): 3350 nM; Kd (HLA-A*31:01; [2]): 3740 nM
4 | SSGFYFEIAR | 90.6 nM | ≥ 21300 nM | 179 nM | 13.3 nM | 14.2 nM |  |  |  |  |  | 
5 | SSIVRQLFK |  |  |  |  |  | 73.2 nM | 58.8 nM | ≥ 77700 nM | 392 nM | 2000 nM | 
6 | STCMMCYKR |  |  |  |  |  | 9.05 nM | 2250 nM | 24.5 nM | 17.8 nM | 5.01 nM | 
7 | STRHPSKLR |  |  |  |  |  | 3210 nM | 440 nM | 246 nM | 101 nM | 9.74 nM | 
8 | STVKTNLYMK | 3.96 nM | 212 nM | ≥ 70000 nM | 2.27 nM | 640 nM |  |  |  |  |  | 
9 | SVDIETAIR | 53 nM | ≥ 78000 nM | 17500 nM | 187 nM | 1800 nM |  |  |  |  |  | 
10 | SVFKGFSDK | 0.852 nM | 4.28 nM | 13500 nM | 5.49 nM | 764 nM |  |  |  |  |  | 
11 | SVSPKLFIR |  |  |  |  |  | 755 nM | 7450 nM | 12500 nM | 1420 nM | 116 nM | 
12 | SVVNARLRAK |  |  |  |  |  | 89.9 nM | 65.5 nM | ≥ 33700 nM | 250 nM | 1370 nM | 
13 | TAVAKCNLNH |  |  |  |  |  |  |  |  |  |  | Kd (HLA-A*11:01; [4]): ≥ 69700 nM; Kd (HLA-A*03:01; [4]): ≥ 70000 nM; Kd (HLA-A*33:01; [4]): 9990 nM; Kd (HLA-A*68:01; [4]): ≥ 70100 nM; Kd (HLA-A*31:01; [4]): ≥ 70000 nM
14 | TIERIFNAK | 1.16 nM | 3190 nM | 1980 nM | 19.8 nM | 240 nM |  |  |  |  |  | 
15 | TLVPVLEKK | 15.9 nM | 237 nM | 14000 nM | 117 nM | 332 nM |  |  |  |  |  | 
16 | TQYNRYLALY |  |  |  |  |  | 1570 nM | 266 nM | 1610 nM | 99.3 nM | 283 nM | 

Row | Sequence | Kd (HLA-A*11:01; [1]) | Kd (HLA-A*03:01; [1]) | Kd (HLA-A*33:01; [1]) | Kd (HLA-A*68:01; [1]) | Kd (HLA-A*31:01; [1]) | Kd (HLA-A*11:01; [3]) | Kd (HLA-A*03:01; [3]) | Kd (HLA-A*33:01; [3]) | Kd (HLA-A*68:01; [3]) | Kd (HLA-A*31:01; [3]) | also measured
17 | TTFDAEYCR |  |  |  |  |  | 76.1 nM | ≥ 33800 nM | 111 nM | 2.05 nM | 103 nM | 
18 | TVCTVCGMWK |  |  |  |  |  | 5.49 nM | 24 nM | 587 nM | 52.2 nM | 188 nM | 
19 | TVVQRCASNK |  |  |  |  |  | 103 nM | 140 nM | 7490 nM | 122 nM | 224 nM | 
20 | VFSFWLLCK | 11.9 nM | 281 nM | 4130 nM | 298 nM | 872 nM |  |  |  |  |  | 
21 | VLAAECTIFK |  |  |  |  |  | 104 nM | 59.9 nM | 70.2 nM | 258 nM | 133 nM | 
22 | VLDIISSKQY | 9680 nM | 601 nM | 1430 nM | 1390 nM | 518 nM |  |  |  |  |  | 
23 | VLMHPDFCK | 4.33 nM | 8.68 nM | 1380 nM | 259 nM | 227 nM |  |  |  |  |  | 
24 | VSSLVKNVNK | 40 nM | 172 nM | ≥ 50000 nM | 3360 nM | 1180 nM |  |  |  |  |  | 
25 | VVKWKRDEH |  |  |  |  |  |  |  |  |  |  | Kd (HLA-A*11:01; [5]): 187 nM; Kd (HLA-A*03:01; [5]): ≥ 37200 nM; Kd (HLA-A*33:01; [5]): ≥ 77700 nM; Kd (HLA-A*68:01; [5]): ≥ 77600 nM; Kd (HLA-A*31:01; [5]): ≥ 34800 nM
26 | VVVKDDPDHY | ≥ 21600 nM | ≥ 28000 nM | ≥ 70000 nM | ≥ 70200 nM | ≥ 70000 nM |  |  |  |  |  | 
27 | WIKNLETYTR | 6310 nM | ≥ 40900 nM | 1130 nM | 38.1 nM | 361 nM |  |  |  |  |  | 
28 | YIPGTSVIR | ≥ 77900 nM | ≥ 78000 nM | 2900 nM | 40.4 nM | 664 nM |  |  |  |  |  | 
29 | YMVTDKTAY | ≥ 26200 nM | ≥ 33700 nM | ≥ 44300 nM | ≥ 40900 nM | ≥ 47800 nM |  |  |  |  |  | 
30 | YSKFWYLEH |  |  |  |  |  |  |  |  |  |  | Kd (HLA-A*11:01; [5]): ≥ 40900 nM; Kd (HLA-A*03:01; [5]): ≥ 78000 nM; Kd (HLA-A*33:01; [5]): 12400 nM; Kd (HLA-A*68:01; [5]): ≥ 77600 nM; Kd (HLA-A*31:01; [5]): 6010 nM
31 | YTHGIVFDGK | 8.46 nM | 7.46 nM | 350 nM | 4.56 nM | 156 nM |  |  |  |  |  | 
32 | YTIERIFNAK | 36.2 nM | 231 nM | 875 nM | 10.3 nM | 3550 nM |  |  |  |  |  | 

From the Immune Epitope Database (IEDB)
